Here are results for one molecule from paper PMC8523169, “Competitive binding of MatP and topoisomerase IV to the MukB hinge domain” (eLife, 2021).

Data set [1] deals with the molecule itself. The data set can be described thus: native MS; proteins buffer exchanged into 200 mM ammonium acetate pH 8.0, alone or mixed in different ratios (two or three components, with or without 50 bp DNA), 10 min on ice.
For data set [2], the target named is T1, full-length ParC, N-terminal 6xHis-tag (E. coli, UniProt P0AFI2 1-752).
T1 construct: ParC subunit of topoisomerase IV, E. coli, full length; also called His-ParC; ParC2; source: overexpressed, purified as previously published (Nolivos et al., 2016) with an added SEC step; not shown: His6, N-terminal, kept
T1 sequence (looked up): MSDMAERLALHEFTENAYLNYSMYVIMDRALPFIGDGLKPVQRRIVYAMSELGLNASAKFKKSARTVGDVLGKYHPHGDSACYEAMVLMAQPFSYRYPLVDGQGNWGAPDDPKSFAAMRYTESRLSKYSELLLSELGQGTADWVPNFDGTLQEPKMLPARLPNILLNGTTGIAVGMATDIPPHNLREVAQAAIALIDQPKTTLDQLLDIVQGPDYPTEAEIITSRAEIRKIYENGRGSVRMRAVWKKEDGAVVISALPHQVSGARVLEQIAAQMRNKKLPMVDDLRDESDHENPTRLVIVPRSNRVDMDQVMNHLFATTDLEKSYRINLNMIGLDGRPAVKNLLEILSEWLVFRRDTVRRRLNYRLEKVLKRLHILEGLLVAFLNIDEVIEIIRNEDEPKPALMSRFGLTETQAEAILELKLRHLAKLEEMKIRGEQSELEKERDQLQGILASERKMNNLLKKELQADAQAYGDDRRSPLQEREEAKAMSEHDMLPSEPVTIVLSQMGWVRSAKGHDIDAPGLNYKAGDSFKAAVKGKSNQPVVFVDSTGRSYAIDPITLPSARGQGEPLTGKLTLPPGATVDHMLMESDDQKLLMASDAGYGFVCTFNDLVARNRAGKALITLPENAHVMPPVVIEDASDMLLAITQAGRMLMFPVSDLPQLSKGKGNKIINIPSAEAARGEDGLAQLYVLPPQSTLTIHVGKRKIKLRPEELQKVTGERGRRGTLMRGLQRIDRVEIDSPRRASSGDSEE
The data set can be described thus: ITC; 100 µM LH titrated into 10 µM ParC at 25 °C; one-site model; three repeats. Particulars: both partners purified.

The target of data set [3] is T1, full-length ParC, N-terminal 6xHis-tag. The data set can be described thus: native MS; proteins buffer exchanged into 200 mM ammonium acetate pH 8.0, alone or mixed in different ratios (two or three components, with or without 50 bp DNA), 10 min on ice. As to conditions: both partners purified.

B1: MukB long hinge (LH; amino acid residues 568–863) (domain or fragment, E. coli, UniProt P22523 568-863, looked up)
chain: SLSDSVSNAREERMALRQEQEQLQSRIQSLMQRAPVWLAAQNSLNQLSEQCGEEFTSSQDVTEYLQQLLEREREAIVERDEVGARKNAVDEEIERLSQPGGSEDQRLNALAERFGGVLLSEIYDDVSLEDAPYFSALYGPSRHAIVVPDLSQVTEHLEGLTDCPEDLYLIEGDPQSFDDSVFSVDELEKAVVVKIADRQWRYSRFPEVPLFGRAARESRIESLHAEREVLSERFATLSFDVQKTQRLHQAFSRFIGSHLAVAFESDPEAEIRQLNSRRVELERALSNHENDNQQQR
notes: MukB, E. coli, residues 568-863: dimeric globular hinge domain and 20% of the coiled-coil region; also called LH (MBP cleaved); LH2; source: NEBExpress cells (pMAL-c5X), purified (amylose, Factor Xa cleavage, HiTrap Q XL, SEC); not shown: MBP, N-terminal, cleaved
Consider B1, for which the “stoichiometry N” value in data set [1] turned out to be 2. In addition, in data set [2], binding was put at a Kd of 690 nM, the dH was -7.48 kcal/mol and the “stoichiometry N” value was determined as 0.84. In addition, the “stoichiometry N” value in data set [3] amounted to 1 LH dimer per ParC dimer.
